From PMC9786881 (Viruses, 2022) come the findings set out here.

The chains are these.
B1: RABV phosphoprotein residues 1-68 with C-terminal His6 (P68−His6) (peptide)
chain: MSKIFVNPSAIRAGLADLEMAEETVDLINRNIEDNQAHLQGEPIEVDNLPEDMKRLHLDDEKSSNLGE
B2: full-length RABV phosphoprotein (PFL) (natural protein)
chain: MSKIFVNPSAIRAGLADLEMAEETVDLINRNIEDNQAHLQGEPIEVDNLPEDMKRLHLDDEKSSNLGEMVRVGEGKYREDFQMDEGEDPNLLFQSYLDNVGVQIVRQMRSGERFLKIWSQTVEEIVSYVTVNFPNPPRRSSEDKSTQTTGRELKKETTSAFSQRESQPSKARMVAQVAPGPPALEWSATNEEDDLSVEAEIAHQIAESFSKKYKFPSRSSGIFLYNFEQLKMNLDDIVKEAKNVPGVTRLAHDGSKIPLRCVLGWVALANSKKFQLLVEADKLSKIMQDDLNRYTSC
B3: RABV nucleoprotein lacking its N-terminal arm (N[change], residues 24-450) (domain or fragment)
chain: DQYEYKYPAIKDLKKPCITLGKAPDLNKAYKSVLSGMNAAKLDPDDVCSYLAAAMQFFEGTCPEDWTSYGILIARKGDRITPNSLVEIKRTDVDGNWALTGGMELTRDPTVSEHASLVGLLLSLYRLSKISGQNTGNYKTNIADRIEQIFETAPFVKIVEHHTLMTTHKMCANWSTIPNFRFLAGTYDMFFSRIEHLYSAIRVGTVVTAYEDCSGLVSFTGFIKQINLTAREAILYFFHKNFEEEIRRMFEPGQETAVPHSYFIHFRSLGLSGKSPYSSNAVGHVFNLIHFVGCYMGQVRSLNATVIAACAPHEMSVLGGYLGEEFFGKGTFERRFFRDEKELQEYEAAELTKTDVALADDGTVNSDDEDYFSGETRSPEAVYTRIMMNGGRLKRSHIRRYVSVSSNHQARPNSFAEFLNKTYSNDS

Series [1] has as its target B3. Briefly: SEC-MALLS. Particulars: both partners purified.
Series [2] concerns the target B3. As to the kind of experiment: fluorescence polarisation. Particulars: both partners purified. A general note: In fluorescence polarisation assays a small probe gives low polarisation when free and higher when bound to something large.
The target in series [3] is B3. Briefly: fluorescence polarisation. Particulars: both partners purified. This is another data set of the same source.
The series “SEC-SAXS” concerns the molecule itself. Briefly: SEC-SAXS. For orientation: In gel filtration, larger molecules generally elute earlier.
In series [4] the target is B2. Briefly: SEC-SAXS. Particulars: both partners purified.

“And” between values parts separate entries of the source, which are not always exact repeats. Identical values can stand only once.

One may read the Kd as the equilibrium constant for the complex coming apart. As a reminder, the IC50 is the point on the concentration scale where inhibition reaches its midpoint. Higher therefore signals weaker potency. As for B1, the Kd was less than 1000 nM in series [1] and 8.2 ± 0.6 nM in series [3]. The IC50 in series [2] was approximately 1000 nM.

One may read the stoichiometry N as the number of molecules, sites or subunits per partner or assembly. On to B2, for which, in the series “SEC-SAXS”, the “stoichiometry N” value stood at 2.

With B3, in series [4], the “stoichiometry N” value was 2 N molecules per P dimer and 1 N molecules per P dimer.
